# Results as given in patent US12679878B2, “CRF2 receptor agonists and their use in therapy” (SANOFI, priority 2020, dated 2026).
# Starred links: 1 amine or outer side, 2 acyl side, 3 side chain; linkers in the order of their positions; H or OH if unused. Groups on a side chain read outwards from the residue. No end group written: not given here. *: point of attachment. C20 diacid = O=C(O)CCCCCCCCCCCCCCCCCCC(=O)*; C18 diacid = O=C(O)CCCCCCCCCCCCCCCCC(=O)*; γGlu = O=C(O)[C@H](CCC(=O)[*:2])N[*:1]; AEEA = NCCOCCOCC(=O)O
# B1: peptide of SEQ ID NO: 53 (peptide)
# peptide: FTLSLDVPTKIK([AEEA-AEEA-γGlu-C18 diacid])QILLKQQKQKKERQQAETNKQLLERV-NH2
# modifications: N-terminus assumed
# SMILES: CC[C@H](C)[C@H](NC(=O)[C@H](CCC(N)=O)NC(=O)[C@H](CCCCNC(=O)COCCOCCNC(=O)COCCOCCNC(=O)CC[C@H](NC(=O)CCCCCCCCCCCCCCCCC(=O)O)C(=O)O)NC(=O)[C@@H](NC(=O)[C@H](CCCCN)NC(=O)[C@@H](NC(=O)[C@@H]1CCCN1C(=O)[C@@H](NC(=O)[C@H](CC(=O)O)NC(=O)[C@H](CC(C)C)NC(=O)[C@H](CO)NC(=O)[C@H](CC(C)C)NC(=O)[C@@H](NC(=O)[C@@H](N)Cc1ccccc1)[C@@H](C)O)C(C)C)[C@@H](C)O)[C@@H](C)CC)C(=O)N[C@@H](CC(C)C)C(=O)N[C@@H](CC(C)C)C(=O)N[C@@H](CCCCN)C(=O)N[C@@H](CCC(N)=O)C(=O)N[C@@H](CCC(N)=O)C(=O)N[C@@H](CCCCN)C(=O)N[C@@H](CCC(N)=O)C(=O)N[C@@H](CCCCN)C(=O)N[C@@H](CCCCN)C(=O)N[C@@H](CCC(=O)O)C(=O)N[C@@H](CCCNC(=N)N)C(=O)N[C@@H](CCC(N)=O)C(=O)N[C@@H](CCC(N)=O)C(=O)N[C@@H](C)C(=O)N[C@@H](CCC(=O)O)C(=O)N[C@H](C(=O)N[C@@H](CC(N)=O)C(=O)N[C@@H](CCCCN)C(=O)N[C@@H](CCC(N)=O)C(=O)N[C@@H](CC(C)C)C(=O)N[C@@H](CC(C)C)C(=O)N[C@@H](CCC(=O)O)C(=O)N[C@@H](CCCNC(=N)N)C(=O)N[C@H](C(N)=O)C(C)C)[C@@H](C)O
# B2: peptide of SEQ ID NO: 58 (peptide)
# peptide: FTLSLDVPTKIK([AEEA-AEEA-γGlu-C20 diacid])QILFKQQKQKKERQQAEKNKQLLEQI-NH2
# B3: peptide of SEQ ID NO: 62 (peptide)
# peptide: FTLSLDVPIKLK([AEEA-AEEA-γGlu-C20 diacid])QILLKQQKQKKERQQAETNVQLLERV-NH2
# B4: peptide of SEQ ID NO: 61 (peptide)
# peptide: FTLSLDVPTKIK([AEEA-AEEA-γGlu-C20 diacid])QILLKQQKQKKERQQAETNKQLLERV-NH2
# B5: peptide of SEQ ID NO: 67 (peptide)
# peptide: IVLSLDVPIKLK([AEEA-AEEA-γGlu-C18 diacid])QILLEQEKQKKQREQAETNKQILAQV-NH2
# modifications: N-terminus assumed
# SMILES: CC[C@H](C)[C@H](N)C(=O)N[C@H](C(=O)N[C@@H](CC(C)C)C(=O)N[C@@H](CO)C(=O)N[C@@H](CC(C)C)C(=O)N[C@@H](CC(=O)O)C(=O)N[C@H](C(=O)N1CCC[C@H]1C(=O)N[C@H](C(=O)N[C@@H](CCCCN)C(=O)N[C@@H](CC(C)C)C(=O)N[C@@H](CCCCNC(=O)COCCOCCNC(=O)COCCOCCNC(=O)CC[C@H](NC(=O)CCCCCCCCCCCCCCCCC(=O)O)C(=O)O)C(=O)N[C@@H](CCC(N)=O)C(=O)N[C@H](C(=O)N[C@@H](CC(C)C)C(=O)N[C@@H](CC(C)C)C(=O)N[C@@H](CCC(=O)O)C(=O)N[C@@H](CCC(N)=O)C(=O)N[C@@H](CCC(=O)O)C(=O)N[C@@H](CCCCN)C(=O)N[C@@H](CCC(N)=O)C(=O)N[C@@H](CCCCN)C(=O)N[C@@H](CCCCN)C(=O)N[C@@H](CCC(N)=O)C(=O)N[C@@H](CCCNC(=N)N)C(=O)N[C@@H](CCC(=O)O)C(=O)N[C@@H](CCC(N)=O)C(=O)N[C@@H](C)C(=O)N[C@@H](CCC(=O)O)C(=O)N[C@H](C(=O)N[C@@H](CC(N)=O)C(=O)N[C@@H](CCCCN)C(=O)N[C@@H](CCC(N)=O)C(=O)N[C@H](C(=O)N[C@@H](CC(C)C)C(=O)N[C@@H](C)C(=O)N[C@@H](CCC(N)=O)C(=O)N[C@H](C(N)=O)C(C)C)[C@@H](C)CC)[C@@H](C)O)[C@@H](C)CC)[C@@H](C)CC)C(C)C)C(C)C
# B6: peptide of SEQ ID NO: 52 (peptide)
# peptide: FTLSLDVPTKIK([AEEA-AEEA-γGlu-C18 diacid])QILLKQQKQKKERQQAEKNKQLLERV-NH2
# modifications: N-terminus assumed
# SMILES: CC[C@H](C)[C@H](NC(=O)[C@H](CCC(N)=O)NC(=O)[C@H](CCCCNC(=O)COCCOCCNC(=O)COCCOCCNC(=O)CC[C@H](NC(=O)CCCCCCCCCCCCCCCCC(=O)O)C(=O)O)NC(=O)[C@@H](NC(=O)[C@H](CCCCN)NC(=O)[C@@H](NC(=O)[C@@H]1CCCN1C(=O)[C@@H](NC(=O)[C@H](CC(=O)O)NC(=O)[C@H](CC(C)C)NC(=O)[C@H](CO)NC(=O)[C@H](CC(C)C)NC(=O)[C@@H](NC(=O)[C@@H](N)Cc1ccccc1)[C@@H](C)O)C(C)C)[C@@H](C)O)[C@@H](C)CC)C(=O)N[C@@H](CC(C)C)C(=O)N[C@@H](CC(C)C)C(=O)N[C@@H](CCCCN)C(=O)N[C@@H](CCC(N)=O)C(=O)N[C@@H](CCC(N)=O)C(=O)N[C@@H](CCCCN)C(=O)N[C@@H](CCC(N)=O)C(=O)N[C@@H](CCCCN)C(=O)N[C@@H](CCCCN)C(=O)N[C@@H](CCC(=O)O)C(=O)N[C@@H](CCCNC(=N)N)C(=O)N[C@@H](CCC(N)=O)C(=O)N[C@@H](CCC(N)=O)C(=O)N[C@@H](C)C(=O)N[C@@H](CCC(=O)O)C(=O)N[C@@H](CCCCN)C(=O)N[C@@H](CC(N)=O)C(=O)N[C@@H](CCCCN)C(=O)N[C@@H](CCC(N)=O)C(=O)N[C@@H](CC(C)C)C(=O)N[C@@H](CC(C)C)C(=O)N[C@@H](CCC(=O)O)C(=O)N[C@@H](CCCNC(=N)N)C(=O)N[C@H](C(N)=O)C(C)C
# B7: peptide of SEQ ID NO: 63 (peptide)
# peptide: FTLSLDVPIKLK([AEEA-AEEA-γGlu-C20 diacid])QILLEQQKQKKERQQAETNVQLLERV-NH2
# B8: peptide of SEQ ID NO: 54 (peptide)
# peptide: FTLSLDVPIKLK([AEEA-AEEA-γGlu-C18 diacid])QILLKQQKQKKERQQAETNVQLLERV-NH2
# modifications: N-terminus assumed
# SMILES: CC[C@H](C)[C@H](NC(=O)[C@H](CCC(N)=O)NC(=O)[C@H](CCCCNC(=O)COCCOCCNC(=O)COCCOCCNC(=O)CC[C@H](NC(=O)CCCCCCCCCCCCCCCCC(=O)O)C(=O)O)NC(=O)[C@H](CC(C)C)NC(=O)[C@H](CCCCN)NC(=O)[C@@H](NC(=O)[C@@H]1CCCN1C(=O)[C@@H](NC(=O)[C@H](CC(=O)O)NC(=O)[C@H](CC(C)C)NC(=O)[C@H](CO)NC(=O)[C@H](CC(C)C)NC(=O)[C@@H](NC(=O)[C@@H](N)Cc1ccccc1)[C@@H](C)O)C(C)C)[C@@H](C)CC)C(=O)N[C@@H](CC(C)C)C(=O)N[C@@H](CC(C)C)C(=O)N[C@@H](CCCCN)C(=O)N[C@@H](CCC(N)=O)C(=O)N[C@@H](CCC(N)=O)C(=O)N[C@@H](CCCCN)C(=O)N[C@@H](CCC(N)=O)C(=O)N[C@@H](CCCCN)C(=O)N[C@@H](CCCCN)C(=O)N[C@@H](CCC(=O)O)C(=O)N[C@@H](CCCNC(=N)N)C(=O)N[C@@H](CCC(N)=O)C(=O)N[C@@H](CCC(N)=O)C(=O)N[C@@H](C)C(=O)N[C@@H](CCC(=O)O)C(=O)N[C@H](C(=O)N[C@@H](CC(N)=O)C(=O)N[C@H](C(=O)N[C@@H](CCC(N)=O)C(=O)N[C@@H](CC(C)C)C(=O)N[C@@H](CC(C)C)C(=O)N[C@@H](CCC(=O)O)C(=O)N[C@@H](CCCNC(=N)N)C(=O)N[C@H](C(N)=O)C(C)C)C(C)C)[C@@H](C)O
# B9: peptide of SEQ ID NO: 60 (peptide)
# peptide: FTLSLDVPTKIK([AEEA-AEEA-γGlu-C20 diacid])QILLKQQKQKKERQQAEKNKQLLERV-NH2
# Legend:
# [1] = biological target: rat CRF2R α receptor (rat, UniProt P47866 20-411); assay: cell-based or functional assay
# Sequence of rat CRF2R α receptor (P47866 20-411): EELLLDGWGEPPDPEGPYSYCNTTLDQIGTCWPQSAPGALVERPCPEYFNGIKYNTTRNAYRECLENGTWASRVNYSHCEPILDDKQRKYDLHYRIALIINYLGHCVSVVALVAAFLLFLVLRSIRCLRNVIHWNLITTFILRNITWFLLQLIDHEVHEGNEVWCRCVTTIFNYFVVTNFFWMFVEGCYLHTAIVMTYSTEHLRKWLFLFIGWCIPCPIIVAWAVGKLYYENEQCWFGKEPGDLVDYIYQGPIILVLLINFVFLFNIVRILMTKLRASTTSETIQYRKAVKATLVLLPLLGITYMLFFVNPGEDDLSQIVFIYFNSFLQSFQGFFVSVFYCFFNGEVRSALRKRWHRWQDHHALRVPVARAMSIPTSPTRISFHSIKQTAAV
# [2] = biological target: T1, anti-target CRF1R receptor (UniProt P34998 24-415, limits assumed); assay: cell-based or functional assay
# T1 sequence (looked up): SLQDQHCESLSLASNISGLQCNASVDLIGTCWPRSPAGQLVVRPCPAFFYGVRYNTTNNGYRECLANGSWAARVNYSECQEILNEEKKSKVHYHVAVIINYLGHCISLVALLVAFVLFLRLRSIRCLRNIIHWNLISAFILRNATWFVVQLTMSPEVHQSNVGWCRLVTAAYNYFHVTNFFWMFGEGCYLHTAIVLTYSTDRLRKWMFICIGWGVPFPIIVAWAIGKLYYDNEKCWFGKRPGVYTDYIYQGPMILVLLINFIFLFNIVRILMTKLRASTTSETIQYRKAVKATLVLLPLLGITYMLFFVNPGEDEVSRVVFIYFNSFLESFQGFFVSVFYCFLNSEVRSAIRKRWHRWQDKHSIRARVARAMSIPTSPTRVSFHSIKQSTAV
Binder,"EC50 [nM], 0% HSA (cAMP, A7R5 cells) [1] [nM]","EC50[nM] 0% HSA (cAMP, CRF1R-overexpression CHO cells) [2] [nM]","Emax (%) (cAMP, CRF1R-overexpression CHO cells) [2]"
B1,1.32,> 1000,4.14
B2,0.72,> 1000,9.12
B3,2.9,> 1000,2.28
B4,0.94,> 1000,3.31
B5,0.66,> 1000,9.18
B6,0.76,> 1000,5.3
B7,4.73,> 1000,4.68
B8,1.51,> 1000,2.72
B9,1.35,> 1000,4.84
